According to PMC11381544 (Nature Communications, 2024):

Experiments:
[1] = test system: P3H1 within the PCP complex; assay: 2-OG dependent oxygenase activity; format: biochemical, human; conditions: Succinate-Glo assay, Fig. 1g, Fig. 3f, Supplementary Fig. 1f
[2] = test system: CRTAP and PPIB; assay: Co-purification / SDS-PAGE of PCP complex with P3H1 mutants; format: binding, human; conditions: co-expression with CRTAP and PPIB, Supplementary Fig. 1c

B1: PCP-P3H1D589A: PCP complex with P3H1 active-site mutation D589A (protein)
chain: EVESEAGWGMVTPDLLFAEGTAAYARGDWPGVVLSMERALRSRAALRALRLRCRTQCAADFPWELDPDWSPSPAQASGAAALRDLSFFGGLLRRAACLRRCLGPPAAHSLSEEMELEFRKRSPYNYLQVAYFKINKLEKAVAAAHTFFVGNPEHMEMQQNLDYYQTMSGVKEADFKDLETQPHMQEFRLGVRLYSEEQPQEAVPHLEAALQEYFVAYEECRALCEGPYDYDGYNYLEYNADLFQAITDHYIQVLNCKQNCVTELASHPSREKPFEDFLPSHYNYLQFAYYNIGNYTQAVECAKTYLLFFPNDEVMNQNLAYYAAMLGEEHTRSIGPRESAKEYRQRSLLEKELLFFAYDVFGIPFVDPDSWTPEEVIPKRLQEKQKSERETAVRISQEIGNLMKEIETLVEEKTKESLDVSRLTREGGPLLYEGISLTMNSKLLNGSQRVVMDGVISDHECQELQRLTNVAATSGDGYRGQTSPHTPNEKFYGVTVFKALKLGQEGKVPLQSAHLYYNVTEKVRRIMESYFRLDTPLYFSYSHLVCRTAIEEVQAERKDDSHPVHVANCILNAETLVCVKEPPAYTFRDYSAILYLNGDFDGGNFYFTELDAKTVTAEVQPQCGRAVGFSSGTENPHGVKAVTRGQRCAIALWFTLDPRHSERDRVQADDLVKMLFSPEEMDLSQEQPLDAQQGPPEPAQESLSGSESKPKDEL
B1 was tested, and the “2OG-Fe (II) oxygenase / P3H1 activity, in words” value [1] was “significantly decreased 2OG-dependent oxygenase activities” and the “PCP complex formation of P3H1 active mutants” value (“PCP complex formation” below) [2] was “could form PCP complex with CRTAP and PPIB”.

B2: PCP-P3H1H587A: PCP complex with P3H1 active-site mutation H587A (protein)
chain: EVESEAGWGMVTPDLLFAEGTAAYARGDWPGVVLSMERALRSRAALRALRLRCRTQCAADFPWELDPDWSPSPAQASGAAALRDLSFFGGLLRRAACLRRCLGPPAAHSLSEEMELEFRKRSPYNYLQVAYFKINKLEKAVAAAHTFFVGNPEHMEMQQNLDYYQTMSGVKEADFKDLETQPHMQEFRLGVRLYSEEQPQEAVPHLEAALQEYFVAYEECRALCEGPYDYDGYNYLEYNADLFQAITDHYIQVLNCKQNCVTELASHPSREKPFEDFLPSHYNYLQFAYYNIGNYTQAVECAKTYLLFFPNDEVMNQNLAYYAAMLGEEHTRSIGPRESAKEYRQRSLLEKELLFFAYDVFGIPFVDPDSWTPEEVIPKRLQEKQKSERETAVRISQEIGNLMKEIETLVEEKTKESLDVSRLTREGGPLLYEGISLTMNSKLLNGSQRVVMDGVISDHECQELQRLTNVAATSGDGYRGQTSPHTPNEKFYGVTVFKALKLGQEGKVPLQSAHLYYNVTEKVRRIMESYFRLDTPLYFSYSHLVCRTAIEEVQAERKDDSHPVAVDNCILNAETLVCVKEPPAYTFRDYSAILYLNGDFDGGNFYFTELDAKTVTAEVQPQCGRAVGFSSGTENPHGVKAVTRGQRCAIALWFTLDPRHSERDRVQADDLVKMLFSPEEMDLSQEQPLDAQQGPPEPAQESLSGSESKPKDEL
With B2 the “2OG-Fe (II) oxygenase / P3H1 activity, in words” value [1] was “significantly decreased 2OG-dependent oxygenase activities” and the “PCP complex formation” value [2] was “could form PCP complex with CRTAP and PPIB”.

B3: PCP-P3H1R669A: PCP complex with P3H1 active-site mutation R669A (protein)
chain: EVESEAGWGMVTPDLLFAEGTAAYARGDWPGVVLSMERALRSRAALRALRLRCRTQCAADFPWELDPDWSPSPAQASGAAALRDLSFFGGLLRRAACLRRCLGPPAAHSLSEEMELEFRKRSPYNYLQVAYFKINKLEKAVAAAHTFFVGNPEHMEMQQNLDYYQTMSGVKEADFKDLETQPHMQEFRLGVRLYSEEQPQEAVPHLEAALQEYFVAYEECRALCEGPYDYDGYNYLEYNADLFQAITDHYIQVLNCKQNCVTELASHPSREKPFEDFLPSHYNYLQFAYYNIGNYTQAVECAKTYLLFFPNDEVMNQNLAYYAAMLGEEHTRSIGPRESAKEYRQRSLLEKELLFFAYDVFGIPFVDPDSWTPEEVIPKRLQEKQKSERETAVRISQEIGNLMKEIETLVEEKTKESLDVSRLTREGGPLLYEGISLTMNSKLLNGSQRVVMDGVISDHECQELQRLTNVAATSGDGYRGQTSPHTPNEKFYGVTVFKALKLGQEGKVPLQSAHLYYNVTEKVRRIMESYFRLDTPLYFSYSHLVCRTAIEEVQAERKDDSHPVHVDNCILNAETLVCVKEPPAYTFRDYSAILYLNGDFDGGNFYFTELDAKTVTAEVQPQCGRAVGFSSGTENPHGVKAVTRGQACAIALWFTLDPRHSERDRVQADDLVKMLFSPEEMDLSQEQPLDAQQGPPEPAQESLSGSESKPKDEL
With B3 the “2OG-Fe (II) oxygenase / P3H1 activity, in words” value [1] was “significantly decreased 2OG-dependent oxygenase activities” and the “PCP complex formation” value [2] was “could form PCP complex with CRTAP and PPIB”.

B4: PCP-P3H1H659A: PCP complex with P3H1 active-site mutation H659A (protein)
chain: EVESEAGWGMVTPDLLFAEGTAAYARGDWPGVVLSMERALRSRAALRALRLRCRTQCAADFPWELDPDWSPSPAQASGAAALRDLSFFGGLLRRAACLRRCLGPPAAHSLSEEMELEFRKRSPYNYLQVAYFKINKLEKAVAAAHTFFVGNPEHMEMQQNLDYYQTMSGVKEADFKDLETQPHMQEFRLGVRLYSEEQPQEAVPHLEAALQEYFVAYEECRALCEGPYDYDGYNYLEYNADLFQAITDHYIQVLNCKQNCVTELASHPSREKPFEDFLPSHYNYLQFAYYNIGNYTQAVECAKTYLLFFPNDEVMNQNLAYYAAMLGEEHTRSIGPRESAKEYRQRSLLEKELLFFAYDVFGIPFVDPDSWTPEEVIPKRLQEKQKSERETAVRISQEIGNLMKEIETLVEEKTKESLDVSRLTREGGPLLYEGISLTMNSKLLNGSQRVVMDGVISDHECQELQRLTNVAATSGDGYRGQTSPHTPNEKFYGVTVFKALKLGQEGKVPLQSAHLYYNVTEKVRRIMESYFRLDTPLYFSYSHLVCRTAIEEVQAERKDDSHPVHVDNCILNAETLVCVKEPPAYTFRDYSAILYLNGDFDGGNFYFTELDAKTVTAEVQPQCGRAVGFSSGTENPAGVKAVTRGQRCAIALWFTLDPRHSERDRVQADDLVKMLFSPEEMDLSQEQPLDAQQGPPEPAQESLSGSESKPKDEL
In the case of B4, the “2OG-Fe (II) oxygenase / P3H1 activity, in words” value [1] is reported as “significantly decreased 2OG-dependent oxygenase activities” and the “PCP complex formation” value [2] is reported as “could form PCP complex with CRTAP and PPIB”.

B5: PCP-P3H1W675L: PCP complex with OI-related P3H1 mutation W675L near the active site (protein)
chain: EVESEAGWGMVTPDLLFAEGTAAYARGDWPGVVLSMERALRSRAALRALRLRCRTQCAADFPWELDPDWSPSPAQASGAAALRDLSFFGGLLRRAACLRRCLGPPAAHSLSEEMELEFRKRSPYNYLQVAYFKINKLEKAVAAAHTFFVGNPEHMEMQQNLDYYQTMSGVKEADFKDLETQPHMQEFRLGVRLYSEEQPQEAVPHLEAALQEYFVAYEECRALCEGPYDYDGYNYLEYNADLFQAITDHYIQVLNCKQNCVTELASHPSREKPFEDFLPSHYNYLQFAYYNIGNYTQAVECAKTYLLFFPNDEVMNQNLAYYAAMLGEEHTRSIGPRESAKEYRQRSLLEKELLFFAYDVFGIPFVDPDSWTPEEVIPKRLQEKQKSERETAVRISQEIGNLMKEIETLVEEKTKESLDVSRLTREGGPLLYEGISLTMNSKLLNGSQRVVMDGVISDHECQELQRLTNVAATSGDGYRGQTSPHTPNEKFYGVTVFKALKLGQEGKVPLQSAHLYYNVTEKVRRIMESYFRLDTPLYFSYSHLVCRTAIEEVQAERKDDSHPVHVDNCILNAETLVCVKEPPAYTFRDYSAILYLNGDFDGGNFYFTELDAKTVTAEVQPQCGRAVGFSSGTENPHGVKAVTRGQRCAIALLFTLDPRHSERDRVQADDLVKMLFSPEEMDLSQEQPLDAQQGPPEPAQESLSGSESKPKDEL
In the case of B5, the “2OG-Fe (II) oxygenase / P3H1 activity, in words” value ([1]; listed as W675L^P3H1) is reported as “reduced enzymatic activities”.

B6: P3H1/CRTAP: purified P3H1/CRTAP binary complex obtained when PPIB was excluded from co-transfection (protein)
chain 1: EVESEAGWGMVTPDLLFAEGTAAYARGDWPGVVLSMERALRSRAALRALRLRCRTQCAADFPWELDPDWSPSPAQASGAAALRDLSFFGGLLRRAACLRRCLGPPAAHSLSEEMELEFRKRSPYNYLQVAYFKINKLEKAVAAAHTFFVGNPEHMEMQQNLDYYQTMSGVKEADFKDLETQPHMQEFRLGVRLYSEEQPQEAVPHLEAALQEYFVAYEECRALCEGPYDYDGYNYLEYNADLFQAITDHYIQVLNCKQNCVTELASHPSREKPFEDFLPSHYNYLQFAYYNIGNYTQAVECAKTYLLFFPNDEVMNQNLAYYAAMLGEEHTRSIGPRESAKEYRQRSLLEKELLFFAYDVFGIPFVDPDSWTPEEVIPKRLQEKQKSERETAVRISQEIGNLMKEIETLVEEKTKESLDVSRLTREGGPLLYEGISLTMNSKLLNGSQRVVMDGVISDHECQELQRLTNVAATSGDGYRGQTSPHTPNEKFYGVTVFKALKLGQEGKVPLQSAHLYYNVTEKVRRIMESYFRLDTPLYFSYSHLVCRTAIEEVQAERKDDSHPVHVDNCILNAETLVCVKEPPAYTFRDYSAILYLNGDFDGGNFYFTELDAKTVTAEVQPQCGRAVGFSSGTENPHGVKAVTRGQRCAIALWFTLDPRHSERDRVQADDLVKMLFSPEEMDLSQEQPLDAQQGPPEPAQESLSGSESKPKDEL
chain 2: QYERYSFRSFPRDELMPLESAYRHALDKYSGEHWAESVGYLEISLRLHRLLRDSEAFCHRNCSAAPQPEPAAGLASYPELRLFGGLLRRAHCLKRCKQGLPAFRQSQPSREVLADFQRREPYKFLQFAYFKANNLPKAIAAAHTFLLKHPDDEMMKRNMAYYKSLPGAEDYIKDLETKSYESLFIRAVRAYNGENWRTSITDMELALPDFFKAFYECLAACEGSREIKDFKDFYLSIADHYVEVLECKIQCEENLTPVIGGYPVEKFVATMYHYLQFAYYKLNDLKNAAPCAVSYLLFDQNDKVMQQNLVYYQYHRDTWGLSDEHFQPRPEAVQFFNVTTLQKELYDFAKENIMDDDEGEVVEYVDDLLELEETS
modifications: left off: twin Strep tag, C-terminal, kept
For B6, the “2OG-Fe (II) oxygenase / P3H1 activity, in words” value [1] was “elevated P3H1 activities”.
